Reference: US20200123237A1

Target: IgG1-S4497 (human)
Experiment: cell-based or functional assay

B1: IgG1-S4497 (antibody, not shown: a dimerising Fc or GST)
heavy: EVQLVESGGGLVQPGGSLRLSCSASGFSFNSFWMHWVRQVPGKGLVWISFTNNEGTTTAYADSVRGRFIISRDNAKNTLYLEMNNLRGEDTAVYYCARGDGGLDDWGQGTLVTVSS
light: DIQLTQSPDSLAVSLGERATINCKSSQSIFRTSRNKNLLNWYQQRPGQPPRLLIHWASTRKSGVPDRFSGSGFGTDFTLTITSLQAEDVAIYYCQQYFSPPYTFGQGTKLEIK
EC50 of C3b deposition on Wood 46, purified classical pathway system: 0.668 µg/mL
EC50 of C4b deposition on Wood 46, purified classical pathway system: 0.886 µg/mL
EC50 of neutrophil-mediated phagocytic uptake of Wood 46, NHS devoid of IgG and IgM: 0.144 µg/mL
EC50 of neutrophil-mediated phagocytic uptake of Wood 46, intact NHS: 0.096 µg/mL
